Measured values as given in patent publication US12427210B2, “Compounds comprising a fibroblast activation protein ligand and use thereof” (priority 2019, dated 2025).

Legend:
PDE3A (h) (human) = PDE3A (h) (human) (UniProt Q14432)
[1] = target: Acetylcholinesterase (h) (human) (UniProt P22303)
Lck kinase (h) (human) = Lck kinase (h) (human) (UniProt P06239)
COX1(h) (human) = COX1(h) (human) (UniProt P23219)
COX2(h) (human) = target: T1, COX2(h) (human) (UniProt P35354)
T1 sequence: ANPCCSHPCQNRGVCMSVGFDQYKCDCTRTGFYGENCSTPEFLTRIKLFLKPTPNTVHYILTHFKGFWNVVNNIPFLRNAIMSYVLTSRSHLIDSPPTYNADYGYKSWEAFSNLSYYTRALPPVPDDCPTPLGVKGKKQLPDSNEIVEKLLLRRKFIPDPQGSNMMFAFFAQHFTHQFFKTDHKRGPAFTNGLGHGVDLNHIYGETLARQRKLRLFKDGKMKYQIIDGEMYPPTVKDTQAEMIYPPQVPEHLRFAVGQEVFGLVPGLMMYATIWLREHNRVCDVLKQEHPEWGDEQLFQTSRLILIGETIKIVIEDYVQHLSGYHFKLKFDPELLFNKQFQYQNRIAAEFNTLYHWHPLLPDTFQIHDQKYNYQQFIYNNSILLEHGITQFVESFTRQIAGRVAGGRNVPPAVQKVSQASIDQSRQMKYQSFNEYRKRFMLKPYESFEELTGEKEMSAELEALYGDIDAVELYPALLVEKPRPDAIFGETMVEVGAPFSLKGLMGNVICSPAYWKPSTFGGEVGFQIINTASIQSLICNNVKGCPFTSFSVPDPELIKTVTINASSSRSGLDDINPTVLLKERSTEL

PDE4D2 (h) (human) = PDE4D2 (h) (human) (UniProt Q08499)
PDE4D2 (h) (human), sequence (Q08499 303-809): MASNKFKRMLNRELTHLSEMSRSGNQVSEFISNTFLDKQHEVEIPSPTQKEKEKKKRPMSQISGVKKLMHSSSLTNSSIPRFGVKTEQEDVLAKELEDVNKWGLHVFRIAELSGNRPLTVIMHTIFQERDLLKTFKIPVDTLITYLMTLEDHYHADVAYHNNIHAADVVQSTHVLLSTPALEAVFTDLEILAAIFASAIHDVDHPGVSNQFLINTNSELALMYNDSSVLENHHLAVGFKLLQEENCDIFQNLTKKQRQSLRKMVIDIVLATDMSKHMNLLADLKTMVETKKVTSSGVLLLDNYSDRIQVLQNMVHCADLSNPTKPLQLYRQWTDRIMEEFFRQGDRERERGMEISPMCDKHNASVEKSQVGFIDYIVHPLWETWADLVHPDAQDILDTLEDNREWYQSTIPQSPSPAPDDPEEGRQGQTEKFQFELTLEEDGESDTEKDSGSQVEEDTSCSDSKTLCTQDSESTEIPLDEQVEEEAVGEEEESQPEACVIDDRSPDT

[2] = target: Cathepsin S (Homo sapiens (Human)) (UniProt P25774)
[3] = target: DPP8 (Homo sapiens (Human)) (UniProt Q6V1X1)
[4] = target: Ubiquitin carboxyl-terminal hydrolase 7 (Homo sapiens (Human)) (UniProt Q93009)
[5] = target: T2, Ubiquitin carboxyl-terminal hydrolase 2 (Homo sapiens (Human)) (UniProt O75604)
T2 sequence: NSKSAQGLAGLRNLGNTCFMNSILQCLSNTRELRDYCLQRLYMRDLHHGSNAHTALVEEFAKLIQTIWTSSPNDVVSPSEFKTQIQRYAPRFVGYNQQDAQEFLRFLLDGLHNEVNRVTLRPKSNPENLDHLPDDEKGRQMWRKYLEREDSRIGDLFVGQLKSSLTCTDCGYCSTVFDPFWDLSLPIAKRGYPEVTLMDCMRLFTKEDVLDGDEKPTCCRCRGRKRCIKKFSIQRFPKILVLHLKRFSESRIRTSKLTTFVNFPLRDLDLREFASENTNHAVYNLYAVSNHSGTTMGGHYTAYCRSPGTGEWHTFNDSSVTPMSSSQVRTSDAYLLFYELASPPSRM

[6] = target: T3, Ubiquitin carboxy-terminal hydrolase L3 (Homo sapiens (Human)) (UniProt P15374)
T3 sequence: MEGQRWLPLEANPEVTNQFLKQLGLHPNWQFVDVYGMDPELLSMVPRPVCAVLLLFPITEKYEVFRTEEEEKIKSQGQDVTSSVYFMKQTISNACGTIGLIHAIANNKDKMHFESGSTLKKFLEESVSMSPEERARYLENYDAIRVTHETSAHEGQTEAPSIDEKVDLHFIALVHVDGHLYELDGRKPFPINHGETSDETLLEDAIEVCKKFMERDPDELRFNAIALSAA

[7] = target: Ataxin3 (Homo sapiens (Human)) (UniProt P54252)
Ataxin3 (Homo sapiens (Human)), sequence (P54252 whole entry): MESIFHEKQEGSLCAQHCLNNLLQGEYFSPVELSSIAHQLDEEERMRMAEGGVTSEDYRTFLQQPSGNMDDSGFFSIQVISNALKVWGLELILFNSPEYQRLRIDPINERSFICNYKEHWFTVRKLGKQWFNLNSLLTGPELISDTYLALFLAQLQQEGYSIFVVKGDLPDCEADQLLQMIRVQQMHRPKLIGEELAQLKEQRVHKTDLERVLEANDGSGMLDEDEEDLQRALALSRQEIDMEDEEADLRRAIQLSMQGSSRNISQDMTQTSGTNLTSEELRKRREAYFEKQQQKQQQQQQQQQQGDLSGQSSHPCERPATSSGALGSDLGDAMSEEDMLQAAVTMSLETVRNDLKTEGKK

[8] = target: T4, Caspase-7 (Homo sapiens (Human)) (UniProt P55210)
T4 sequence: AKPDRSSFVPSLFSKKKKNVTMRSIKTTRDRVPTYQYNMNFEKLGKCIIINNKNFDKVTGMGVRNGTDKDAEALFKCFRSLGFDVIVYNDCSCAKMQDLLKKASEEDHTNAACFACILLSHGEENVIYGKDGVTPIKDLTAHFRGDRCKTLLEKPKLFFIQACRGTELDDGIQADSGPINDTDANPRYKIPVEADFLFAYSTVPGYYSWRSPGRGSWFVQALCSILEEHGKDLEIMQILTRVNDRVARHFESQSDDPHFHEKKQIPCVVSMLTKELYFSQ

[9] = target: Cathepsin L (Homo sapiens (Human)) (UniProt P07711)
[10] = target: serine protease NS3 (a.a. 3-181) from Hepatitis C virus genotype 1b (mutant D168V) (Hepatitis C virus genotype 1b)
[11] = target: serine protease NS3 (a.a. 3-181) from Hepatitis C virus genotype 1b (Hepatitis C virus genotype 1b)
[12] = target: serine protease NS3 (a.a. 3-181) from Hepatitis C virus genotype 2a (Hepatitis C virus genotype 2a)
[13] = target: Cathepsin V (Homo sapiens (Human)) (UniProt O60911)
NMDA = test: radioligand displacement, compound at 10 µM
[14] = target: Ca2+ channel (L, dihydropyridine site); test: radioligand displacement, compound at 10 µM
KV channel = test: radioligand displacement, compound at 10 µM
MAO-A = test: radioligand displacement, compound at 10 µM
BZD (central) = test: radioligand displacement, compound at 10 µM
Na+ channel (site 2) = test: radioligand displacement, compound at 10 µM
[15] = target: recombinant human PREP (R&D systems, #4308-SE) (human) (UniProt P48147)
recombinant human PREP (R&D systems, #4308-SE) (human), sequence (P48147 whole entry): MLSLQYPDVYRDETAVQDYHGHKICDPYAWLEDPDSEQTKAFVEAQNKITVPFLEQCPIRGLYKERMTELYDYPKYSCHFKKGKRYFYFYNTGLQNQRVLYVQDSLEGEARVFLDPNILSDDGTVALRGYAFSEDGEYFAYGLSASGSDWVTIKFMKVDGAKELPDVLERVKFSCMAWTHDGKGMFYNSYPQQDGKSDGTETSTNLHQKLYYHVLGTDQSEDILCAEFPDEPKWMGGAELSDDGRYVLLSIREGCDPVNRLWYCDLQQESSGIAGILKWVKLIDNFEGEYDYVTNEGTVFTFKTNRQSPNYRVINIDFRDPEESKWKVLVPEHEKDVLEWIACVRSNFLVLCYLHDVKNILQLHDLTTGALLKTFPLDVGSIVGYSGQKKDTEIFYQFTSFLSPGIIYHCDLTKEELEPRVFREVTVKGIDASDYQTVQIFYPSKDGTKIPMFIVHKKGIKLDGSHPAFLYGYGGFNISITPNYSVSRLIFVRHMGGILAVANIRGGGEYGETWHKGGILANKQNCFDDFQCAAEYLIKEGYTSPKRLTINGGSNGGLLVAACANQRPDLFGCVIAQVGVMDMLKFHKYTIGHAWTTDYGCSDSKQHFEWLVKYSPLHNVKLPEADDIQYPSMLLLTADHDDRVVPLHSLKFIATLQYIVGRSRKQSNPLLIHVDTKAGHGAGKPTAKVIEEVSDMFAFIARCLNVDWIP

[16] = target: Recombinant human DPP4 (R&D systems #9168-SE) (human) (UniProt P27487)

Acetylcholinesterase (h) (human), sequence (P22303 32-614 limits assumed): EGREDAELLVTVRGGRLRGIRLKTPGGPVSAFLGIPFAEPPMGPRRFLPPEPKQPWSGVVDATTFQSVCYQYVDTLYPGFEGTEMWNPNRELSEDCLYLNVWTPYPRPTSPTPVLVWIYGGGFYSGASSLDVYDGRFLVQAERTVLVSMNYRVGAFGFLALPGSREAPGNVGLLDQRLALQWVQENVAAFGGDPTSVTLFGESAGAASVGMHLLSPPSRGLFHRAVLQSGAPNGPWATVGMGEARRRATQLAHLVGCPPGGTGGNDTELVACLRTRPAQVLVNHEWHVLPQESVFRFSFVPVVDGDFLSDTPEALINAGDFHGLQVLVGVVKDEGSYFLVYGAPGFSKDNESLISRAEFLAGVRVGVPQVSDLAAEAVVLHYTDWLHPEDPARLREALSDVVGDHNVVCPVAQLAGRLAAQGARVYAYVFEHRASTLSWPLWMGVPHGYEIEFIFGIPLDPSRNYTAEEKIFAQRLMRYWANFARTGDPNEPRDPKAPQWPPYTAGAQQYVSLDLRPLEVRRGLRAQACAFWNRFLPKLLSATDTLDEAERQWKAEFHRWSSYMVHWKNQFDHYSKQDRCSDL
COX1(h) (human), sequence (P23219 24-599 limits assumed): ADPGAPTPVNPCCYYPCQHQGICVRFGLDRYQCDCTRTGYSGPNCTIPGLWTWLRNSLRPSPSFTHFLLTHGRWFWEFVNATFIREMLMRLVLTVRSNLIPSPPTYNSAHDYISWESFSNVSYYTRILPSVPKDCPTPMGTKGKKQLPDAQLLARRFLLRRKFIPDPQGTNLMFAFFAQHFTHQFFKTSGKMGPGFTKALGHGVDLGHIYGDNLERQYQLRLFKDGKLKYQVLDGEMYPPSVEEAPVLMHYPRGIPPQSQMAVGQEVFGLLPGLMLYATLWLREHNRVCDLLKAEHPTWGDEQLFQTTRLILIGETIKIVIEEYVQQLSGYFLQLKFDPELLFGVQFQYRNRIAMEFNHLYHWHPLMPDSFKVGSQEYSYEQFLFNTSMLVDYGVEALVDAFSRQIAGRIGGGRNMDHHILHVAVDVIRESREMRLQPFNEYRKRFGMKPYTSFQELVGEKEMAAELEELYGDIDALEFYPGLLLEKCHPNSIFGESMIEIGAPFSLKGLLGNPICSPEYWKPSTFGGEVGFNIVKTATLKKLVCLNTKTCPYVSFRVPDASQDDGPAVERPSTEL

Work on “Hex-[Cys(tMeBn(DOTA-AET))-Pro-Pro-Thr-Gln-Phe-Cys]-OH (3BP-3554) (peptide)” yielded a % inhibition of control enzyme activity (PDE3A (h) (human)) of -37 % at 10 µM, a % inhibition of control enzyme activity [1] of 1 % at 10 µM and a % inhibition of control enzyme activity (Lck kinase (h) (human)) of -4 % at 10 µM. For the same substance, the % inhibition of control enzyme activity (COX1(h) (human)) was 8 % at 10 µM, the % inhibition of control enzyme activity (COX2(h) (human)) was -22 % at 10 µM and the % inhibition of control enzyme activity (PDE4D2 (h) (human)) was -4 % at 10 µM. The Percentage inhibition (%) (% inhibition at 10 µM) [2] was -23, the Percentage inhibition (%) (% inhibition at 10 µM) [3] was 11 and the Percentage inhibition (%) (% inhibition at 10 µM) [4] was 1. The Percentage inhibition (%) (% inhibition at 10 µM) [5] was -1, the Percentage inhibition (%) (% inhibition at 10 µM) [6] was 0 and the Percentage inhibition (%) (% inhibition at 10 µM) [7] was -1. It also gave a Percentage inhibition (%) (% inhibition at 10 µM) [8] of -7, a Percentage inhibition (%) (% inhibition at 10 µM) [9] of -6 and a Percentage inhibition (%) (% inhibition at 10 µM) [10] of -17. The Percentage inhibition (%) (% inhibition at 10 µM) [11] was -9, the Percentage inhibition (%) (% inhibition at 10 µM) [12] was -40 and the Percentage inhibition (%) (% inhibition at 10 µM) [13] was -1. It also gave a % Inhibition of Specific Binding (NMDA) of 1%, a % Inhibition of Specific Binding [14] of 54% and a % Inhibition of Specific Binding (KV channel) of 4%. The % Inhibition of Specific Binding (MAO-A) was -25%, the % Inhibition of Specific Binding (BZD (central)) was 5% and the % Inhibition of Specific Binding (Na+ channel (site 2)) was 14%.
Work on “Hex-[Cys(tMeBn(DOTA-PP))-Pro-Pro-Thr-Gln-Phe-Cys]-Asp-NH2 (3BP-3407) (peptide)” yielded a % inhibition of control enzyme activity (PDE3A (h) (human)) of -3 % at 10 µM, a % inhibition of control enzyme activity [1] of -6 % at 10 µM and a % inhibition of control enzyme activity (Lck kinase (h) (human)) of 10 % at 10 µM. For the same substance, the % inhibition of control enzyme activity (COX1(h) (human)) was 10 % at 10 µM, the % inhibition of control enzyme activity (COX2(h) (human)) was -14 % at 10 µM and the % inhibition of control enzyme activity (PDE4D2 (h) (human)) was -5 % at 10 µM. It also gave a Percentage inhibition (%) (% inhibition at 10 µM) [2] of 18, a Percentage inhibition (%) (% inhibition at 10 µM) [3] of 5 and a Percentage inhibition (%) (% inhibition at 10 µM) [4] of 5. It also gave a Percentage inhibition (%) (% inhibition at 10 µM) [5] of 7, a Percentage inhibition (%) (% inhibition at 10 µM) [6] of 14 and a Percentage inhibition (%) (% inhibition at 10 µM) [7] of 10. For the same substance, the Percentage inhibition (%) (% inhibition at 10 µM) [8] was -3, the Percentage inhibition (%) (% inhibition at 10 µM) [9] was 6 and the Percentage inhibition (%) (% inhibition at 10 µM) [10] was -6. The Percentage inhibition (%) (% inhibition at 10 µM) [11] was 5, the Percentage inhibition (%) (% inhibition at 10 µM) [12] was -2 and the Percentage inhibition (%) (% inhibition at 10 µM) [13] was -18. The % Inhibition of Specific Binding (NMDA) was 9%, the % Inhibition of Specific Binding [14] was 42% and the % Inhibition of Specific Binding (KV channel) was -5%. It also gave a % Inhibition of Specific Binding (MAO-A) of -5%, a % Inhibition of Specific Binding (BZD (central)) of -9% and a % Inhibition of Specific Binding (Na+ channel (site 2)) of -7%. For the same substance, the pIC50 (PREP) [15] was under 6 pIC50 and the pIC50 (DPP4) [16] was under 6 pIC50.
